Experimental data from the supplement of paper PMC11246515.
± gives the standard deviation of the averaged measurements.

Assay: total protein half-life in vivo (active degradation + dilution); higher = more stable protein
[1] = E. coli NCM3722 delta-clpP delta-lon delta-hslV, growth: N-lim chemostat, doubling time 6 h
[2] = E. coli NCM3722 delta-clpP, growth: N-lim chemostat, doubling time 6 h
[3] = E. coli NCM3722 delta-hslV, growth: N-lim chemostat, doubling time 6 h
[4] = E. coli NCM3722 delta-lon, growth: N-lim chemostat, doubling time 6 h
[5] = E. coli NCM3722 delta-smpB, growth: N-lim chemostat, doubling time 6 h
[6] = wild type E. coli NCM3722, growth: C-lim chemostat, doubling time 3 h
[7] = wild type E. coli NCM3722, growth: C-lim chemostat, doubling time 6 h
[8] = wild type E. coli NCM3722, growth: C-lim chemostat, doubling time 12 h
[9] = wild type E. coli NCM3722, growth: N-lim chemostat, doubling time 6 h
[10] = wild type E. coli NCM3722, growth: N-lim chemostat, doubling time 12 h
[11] = wild type E. coli NCM3722, growth: P-lim chemostat, doubling time 6 h
[12] = wild type E. coli NCM3722, growth: P-lim chemostat, doubling time 12 h

Row | Sequence | total protein half-life in vivo [1] | total protein half-life in vivo [2] | total protein half-life in vivo [3] | total protein half-life in vivo [4] | total protein half-life in vivo [5] | total protein half-life in vivo [6] | total protein half-life in vivo [7] | total protein half-life in vivo [8] | total protein half-life in vivo [9] | total protein half-life in vivo [10] | total protein half-life in vivo [11] | total protein half-life in vivo [12]
1 | MKTVRESTTLYNFLGSHNPYWRLTESSDVLRFSTTETTEPDRTLQLSAEQAARIREMTVITSSLMMSLTVDESDLSVHLVGRKINKREWAGNASAWHDTPAVARDLSHGLSFAEQVVSEAHSAIVILDSRGNIQRFNRLCEDYTGLKEHDVIGQSVFKLFMSRREAAASRRNNRVFFRSGNAYEVELWIPTCKGQRLFLFRNKFVHSGSGKNEIFLICSGTDITEERRAQERLRILANTDSITGLPNRNAMQDLIDHAINHADNNKVGVVYLDLDNFKKVNDAYGHLFGDQLLRDVSLAILSCLEHDQVLARPGGDEFLVLASNTSQSALEAMASRILTRLRLPFRIGLIEVYTSCSVGIALSPEHGSDSTAIIRHADTAMYTAKEGGRGQFCVFTPEMNQRVFEYLWLDTNLRKALENDQLVIHYQPKITWRGEVRSLEALVRWQSPERGLIPPLDFISYAEESGLIVPLGRWVILDVVRQVAKWRDKGINLRVAVNISARQLADQTIFTALKQVLQELNFEYCPIDVELTESCLIENDELALSVIQQFSQLGAQVHLDDFGTGYSSLSQLARFPIDAIKLDQVFVRDIHKQPVSQSLVRAIVAVAQALNLQVIAEGVESAKEDAFLTKNGINERQGFLFAKPMPAVAFERWYKRYLKRA | 6.59 ± 1.2 h | 2.14 h | 2.36 ± 0.18 h | 3.107 ± 0.019 h | 1.94 ± 0.029 h | 1.58 ± 0.59 h | 4.6 ± 2.3 h | 5.35 h | 3.27 ± 0.56 h | 3.63 h | – | –
2 | MKTVTVKDLVIGTGAPKIIVSLMAKDIASVKSEALAYREADFDILEWRVDHYADLSNVESVMAAAKILRETMPEKPLLFTFRSAKEGGEQAISTEAYIALNRAAIDSGLVDMIDLELFTGDDQVKETVAYAHAHDVKVVMSNHDFHKTPEAEEIIARLRKMQSFDADIPKIALMPQSTSDVLTLLAATLEMQEQYADRPIITMSMAKTGVISRLAGEVFGSAATFGAVKKASAPGQISVNDLRTVLTILHQA | 3.99 ± 0.25 h | 4.15 ± 0.66 h | 3.51 ± 0.0088 h | 4.3 ± 0.52 h | 3.62 ± 0.46 h | > 4 h | 5.56 ± 1 h | 9.4 ± 0.9 h | 3.68 ± 0.14 h | 5.5 ± 0.19 h | 5.38 ± 0.21 h | 11 ± 0.46 h
3 | MKTVVFAYHDMGCLGIEALLAAGYEISAIFTHTDNPGEKAFYGSVARLAAERGIPVYAPDNVNHPLWVERIAQLSPDVIFSFYYRHLIYDEILQLAPAGAFNLHGSLLPKYRGRAPLNWVLVNGETETGVTLHRMVKRADAGAIVAQLRIAIAPDDIAITLHHKLCHAARQLLEQTLPAIKHGNILEIAQRENEATCFGRRTPDDSFLEWHKPASVLHNMVRAVADPWPGAFSYVGNQKFTVWSSRVHPHASKAQPGSVISVAPLLIACGDGALEIVTGQAGDGITMQGSQLAQTLGLVQGSRLNSQPACTARRRTRVLILGVNGFIGNHLTERLLREDHYEVYGLDIGSDAISRFLNHPHFHFVEGDISIHSEWIEYHVKKCDVVLPLVAIATPIEYTRNPLRVFELDFEENLRIIRYCVKYRKRIIFPSTSEVYGMCSDKYFDEDHSNLIVGPVNKPRWIYSVSKQLLDRVIWAYGEKEGLQFTLFRPFNWMGPRLDNLNAARIGSSRAITQLILNLVEGSPIKLIDGGKQKRCFTDIRDGIEALYRIIENAGNRCDGEIINIGNPENEASIEELGEMLLASFEKHPLRHHFPPFAGFRVVESSSYYGKGYQDVEHRKPSIRNAHRCLDWEPKIDMQETIDETLDFFLRTVDLTDKPS | 5.15 ± 0.03 h | 3.11 ± 0.24 h | 2.84 ± 0.19 h | 3.86 ± 0.1 h | 3.13 ± 0.3 h | – | 4.8816 ± 0.00064 h | 10.4 ± 1.2 h | 2.93 ± 0.43 h | 4.61 ± 0.62 h | 5.82 ± 0.22 h | 11.65 ± 0.019 h
4 | MKVAVLGAAGGIGQALALLLKTQLPSGSELSLYDIAPVTPGVAVDLSHIPTAVKIKGFSGEDATPALEGADVVLISAGVARKPGMDRSDLFNVNAGIVKNLVQQVAKTCPKACIGIITNPVNTTVAIAAEVLKKAGVYDKNKLFGVTTLDIIRSNTFVAELKGKQPGEVEVPVIGGHSGVTILPLLSQVPGVSFTEQEVADLTKRIQNAGTEVVEAKAGGGSATLSMGQAAARFGLSLVRALQGEQGVVECAYVEGDGQYARFFSQPLLLGKNGVEERKSIGTLSAFEQNALEGMLDTLKKDIALGEEFVNK | 4.53 ± 0.53 h | 3.92 ± 0.44 h | 3.803 ± 0.013 h | 4.42 ± 0.25 h | 3.84 ± 0.068 h | 3.039 ± 0.028 h | 5.65 ± 0.34 h | 9.69 ± 0.74 h | 3.98 ± 0.16 h | 6.2 ± 0.2 h | 5.94 ± 0.074 h | 11.8 ± 0.51 h
5 | MKVIIVEDEFLAQQELSWLIKEHSQMEIVGTFDDGLDVLKFLQHNRVDAIFLDINIPSLDGVLLAQNISQFAHKPFIVFITAWKEHAVEAFELEAFDYILKPYQESRITGMLQKLEAAWQQQQTSSTPAATVTRENDTINLVKDERIIVTPINDIYYAEAHEKMTFVYTRRESYVMPMNITEFCSKLPPSHFFRCHRSFCVNLNKIREIEPWFNNTYILRLKDLDFEVPVSRSKVKEFRQLMHL [P0AE39] | 5.23 ± 0.21 h | 4.51 ± 0.32 h | 4.019 ± 0.0042 h | 4.73 ± 0.72 h | 4.01 ± 0.061 h | 2.8 ± 0.42 h | 6 ± 0.71 h | 8.85 ± 0.64 h | 4.44 ± 0.42 h | 7.31 ± 0.66 h | 4.93 ± 0.72 h | 9.66 ± 0.46 h
